For one molecule, MFI results are on record in patent US20230227548A1.

The assay deals with murine GPRC5D (murine) (UniProt Q9JIL6). The assay can be described thus: FACS, murine GPRC5D cells. In general terms: In flow cytometry, cells or beads pass a laser one at a time.
murine GPRC5D (murine), sequence (Q9JIL6 whole entry): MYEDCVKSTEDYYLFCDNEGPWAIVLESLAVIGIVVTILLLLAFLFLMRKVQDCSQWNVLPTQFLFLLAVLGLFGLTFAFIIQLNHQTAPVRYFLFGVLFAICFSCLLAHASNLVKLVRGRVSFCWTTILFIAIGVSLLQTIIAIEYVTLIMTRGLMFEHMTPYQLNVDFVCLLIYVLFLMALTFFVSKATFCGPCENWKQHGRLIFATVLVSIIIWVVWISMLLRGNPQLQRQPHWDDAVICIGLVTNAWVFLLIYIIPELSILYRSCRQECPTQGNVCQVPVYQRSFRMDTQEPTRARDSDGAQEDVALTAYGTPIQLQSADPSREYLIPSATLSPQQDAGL

B1: GCDB72 (bispecific antibody, IgG4, V domains shown)
VH 1: EVQLVESGGGLVQPGGSLRLSCAASGFTFNTYAMNWVRQAPGKGLEWVARIRSKYNNYATYYAASVKGRFTISRDDSKNSLYLQMNSLKTEDTAVYYCARHGNFGNSYVSWFAYWGQGTLVTVSS
VL 1: QTVVTQEPSLTVSPGGTVTLTCRSSTGAVTTSNYANWVQQKPGQAPRGLIGGTNKRAPGTPARFSGSLLGGKAALTLSGVQPEDEAEYYCALWYSNLWVFGGGTKLTVL
VH 2: QVQLVQSGAEVKKPGASVKVSCKASGYSFTGYTMNWVRQAPGQGLEWMGLINPYNSDTNYAQKLQGRVTMTTDTSTSTAYMELRSLRSDDTAVYYCARVALRVALDYWGQGTLVTVSS
VL 2: DIQMTQSPSSLSASVGDRVTITCKASQNVATHVGWYQQKPGKAPKRLIYSASYRYSGVPSRFSGSGSGTEFTLTISNLQPEDFATYYCQQYNRYPYTFGQGTKLEIK
Regarding B1, the MFI came to 481.
